Source: patent US20030068675, “Position dependent recognition of GNN nucleotide triplets by zinc fingers” (published 2003)

How the values were obtained:
Experiment in all cases: EMSA
Conditions in all cases: tags: MBP fusion
ZFP SBS#1138 = ZFP SBS#1138 (synthetic)
How it was run: (§1)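 Purified ZFP was titrated against labeled double-stranded target (1 nM or lower, at least 10-fold below expected Kd) carrying the natural binding site with flanks. Binding buffer was 10 mM Tris pH 7.5, 100 mM KCl, 1 mM MgCl2, 0.1 mM ZnCl2, 5 mM DTT, 10% glycerol, 0.02% BSA, with equilibration for at least 45 min. Bound and free target were separated on a 10% polyacrylamide gel.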

ZFP SBS#1118 = molecular target: T1, ZFP SBS#1118 (synthetic)
T1 chain: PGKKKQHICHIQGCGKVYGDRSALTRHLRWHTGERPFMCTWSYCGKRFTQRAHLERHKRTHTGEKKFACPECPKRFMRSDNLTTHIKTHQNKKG
How it was run: as §1

ZFP SBS#472 = molecular target: T2, ZFP SBS#472 (synthetic)
T2 chain: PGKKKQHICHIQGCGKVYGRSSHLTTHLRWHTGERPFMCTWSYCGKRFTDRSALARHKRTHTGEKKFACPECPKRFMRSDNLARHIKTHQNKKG
How it was run: as §1

ZFP SBS#1123 = ZFP SBS#1123 (synthetic)
Sequence of ZFP SBS#1123 (synthetic) (chain, as listed by the source): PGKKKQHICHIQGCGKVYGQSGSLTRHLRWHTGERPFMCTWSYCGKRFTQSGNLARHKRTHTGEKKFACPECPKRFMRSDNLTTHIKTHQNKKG
How it was run: as §1

ZFP SBS#1113 = ZFP SBS#1113 (synthetic)
How it was run: as §1

ZFP SBS#1119 = molecular target: T3, ZFP SBS#1119 (synthetic, UniProt P08047)
T3 chain: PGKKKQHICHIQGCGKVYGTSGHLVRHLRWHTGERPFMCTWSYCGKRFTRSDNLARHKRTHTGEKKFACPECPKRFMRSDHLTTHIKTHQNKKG
How it was run: as §1

ZFP SBS#468 = ZFP SBS#468 (synthetic)
Sequence of ZFP SBS#468 (synthetic) (chain, as listed by the source): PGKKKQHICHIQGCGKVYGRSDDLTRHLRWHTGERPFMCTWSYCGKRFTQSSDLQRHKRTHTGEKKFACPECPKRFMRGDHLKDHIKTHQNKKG
How it was run: as §1

ZFP SBS#466 = ZFP SBS#466 (synthetic)
Sequence of ZFP SBS#466 (synthetic) (chain, as listed by the source): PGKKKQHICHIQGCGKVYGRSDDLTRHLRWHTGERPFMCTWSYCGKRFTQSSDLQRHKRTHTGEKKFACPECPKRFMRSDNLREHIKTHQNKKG
How it was run: as §1

ZFP SBS#467 = ZFP SBS#467 (synthetic)
Sequence of ZFP SBS#467 (synthetic) (chain, as listed by the source): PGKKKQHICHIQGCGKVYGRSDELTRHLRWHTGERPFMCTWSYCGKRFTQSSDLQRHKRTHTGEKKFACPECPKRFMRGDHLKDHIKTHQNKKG
How it was run: as §1

ZFP SBS#1135 = ZFP SBS#1135 (synthetic, UniProt P08047)
How it was run: as §1

ZFP SBS#1130 = molecular target: T4, ZFP SBS#1130 (synthetic)
T4 chain: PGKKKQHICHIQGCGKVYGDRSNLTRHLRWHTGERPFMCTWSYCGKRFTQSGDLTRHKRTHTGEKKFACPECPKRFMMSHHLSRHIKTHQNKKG
How it was run: as §1

ZFP SBS#259 = ZFP SBS#259 (synthetic)
How it was run: as §1

ZFP SBS#1152 = molecular target: T5, ZFP SBS#1152 (synthetic)
T5 chain: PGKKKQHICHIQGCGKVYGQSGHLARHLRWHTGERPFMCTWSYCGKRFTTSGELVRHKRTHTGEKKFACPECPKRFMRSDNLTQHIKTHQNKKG
How it was run: as §1

ZFP SBS#1153 = molecular target: T6, ZFP SBS#1153 (synthetic)
T6 chain: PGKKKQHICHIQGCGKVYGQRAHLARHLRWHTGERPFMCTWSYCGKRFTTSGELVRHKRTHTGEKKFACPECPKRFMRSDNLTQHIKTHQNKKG
How it was run: as §1

ZFP SBS#1148 = molecular target: T7, ZFP SBS#1148 (synthetic)
T7 chain: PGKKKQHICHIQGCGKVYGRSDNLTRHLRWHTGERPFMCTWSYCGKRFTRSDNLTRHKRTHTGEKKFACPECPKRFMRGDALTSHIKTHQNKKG
How it was run: as §1

ZFP SBS#1149 = ZFP SBS#1149 (synthetic)
How it was run: as §1

ZFP SBS#1114 = molecular target: T8, ZFP SBS#1114 (synthetic)
T8 chain: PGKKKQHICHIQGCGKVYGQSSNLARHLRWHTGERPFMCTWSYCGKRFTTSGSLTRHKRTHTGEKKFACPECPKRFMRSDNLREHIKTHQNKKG
How it was run: as §1

ZFP SBS#1115 = ZFP SBS#1115 (synthetic)
Sequence of ZFP SBS#1115 (synthetic) (chain, as listed by the source): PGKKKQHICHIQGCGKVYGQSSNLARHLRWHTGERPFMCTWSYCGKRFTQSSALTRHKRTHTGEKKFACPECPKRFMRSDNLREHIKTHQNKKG
How it was run: as §1

ZFP SBS#1133 = molecular target: T9, ZFP SBS#1133 (synthetic, UniProt P08047)
T9 chain: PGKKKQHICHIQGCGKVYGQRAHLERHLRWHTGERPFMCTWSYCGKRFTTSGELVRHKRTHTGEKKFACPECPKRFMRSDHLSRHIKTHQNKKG
How it was run: as §1

ZFP SBS#1132 = molecular target: T10, ZFP SBS#1132 (synthetic, UniProt P08047)
T10 chain: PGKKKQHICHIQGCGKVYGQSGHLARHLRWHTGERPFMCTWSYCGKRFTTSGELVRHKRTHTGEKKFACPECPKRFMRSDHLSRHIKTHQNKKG
How it was run: as §1

ZFP SBS#469 = molecular target: T11, ZFP SBS#469 (synthetic)
T11 chain: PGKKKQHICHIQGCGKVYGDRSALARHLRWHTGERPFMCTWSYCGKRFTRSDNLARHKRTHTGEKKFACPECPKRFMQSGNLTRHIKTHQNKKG
How it was run: as §1

ZFP SBS#1137 = ZFP SBS#1137 (synthetic)
How it was run: as §1

ZFP SBS#1136 = molecular target: T12, ZFP SBS#1136 (synthetic)
T12 chain: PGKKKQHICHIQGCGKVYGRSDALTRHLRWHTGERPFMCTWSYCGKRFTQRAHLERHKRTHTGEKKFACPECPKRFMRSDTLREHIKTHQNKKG
How it was run: as §1

ZFP SBS#1109 = molecular target: T13, ZFP SBS#1109 (synthetic)
T13 chain: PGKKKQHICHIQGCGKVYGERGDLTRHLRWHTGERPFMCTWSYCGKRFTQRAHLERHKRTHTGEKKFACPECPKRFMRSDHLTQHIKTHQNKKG
How it was run: as §1

ZFP SBS#1110 = molecular target: T14, ZFP SBS#1110 (synthetic)
T14 chain: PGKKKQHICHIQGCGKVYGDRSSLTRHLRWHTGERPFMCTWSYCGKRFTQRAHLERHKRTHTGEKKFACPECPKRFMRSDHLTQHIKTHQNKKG
How it was run: as §1

ZFP SBS#1134 = ZFP SBS#1134 (synthetic, UniProt P08047)
How it was run: as §1

ZFP SBS#1120 = molecular target: T15, ZFP SBS#1120 (synthetic)
T15 chain: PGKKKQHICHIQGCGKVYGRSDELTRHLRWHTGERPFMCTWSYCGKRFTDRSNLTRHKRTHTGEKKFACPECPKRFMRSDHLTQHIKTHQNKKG
How it was run: as §1

ZFP SBS#1111 = molecular target: T16, ZFP SBS#1111 (synthetic)
T16 chain: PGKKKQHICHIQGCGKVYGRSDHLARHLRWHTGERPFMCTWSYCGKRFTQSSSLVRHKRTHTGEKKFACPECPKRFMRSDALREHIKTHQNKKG
How it was run: as §1

ZFP SBS#1112 = ZFP SBS#1112 (synthetic)
Sequence of ZFP SBS#1112 (synthetic) (chain, as listed by the source): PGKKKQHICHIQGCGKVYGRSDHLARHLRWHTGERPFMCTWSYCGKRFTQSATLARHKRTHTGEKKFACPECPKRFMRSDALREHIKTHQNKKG
How it was run: as §1

ZFP SBS#1124 = molecular target: T17, ZFP SBS#1124 (synthetic)
T17 chain: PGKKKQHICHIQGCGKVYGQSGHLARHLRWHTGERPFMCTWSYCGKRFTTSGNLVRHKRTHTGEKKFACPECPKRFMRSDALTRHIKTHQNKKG
How it was run: as §1

ZFP SBS#1121 = molecular target: T18, ZFP SBS#1121 (synthetic)
T18 chain: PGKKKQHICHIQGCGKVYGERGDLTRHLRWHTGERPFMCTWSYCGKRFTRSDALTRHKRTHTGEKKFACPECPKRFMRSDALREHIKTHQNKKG
How it was run: as §1

ZFP SBS#1122 = molecular target: T19, ZFP SBS#1122 (synthetic)
T19 chain: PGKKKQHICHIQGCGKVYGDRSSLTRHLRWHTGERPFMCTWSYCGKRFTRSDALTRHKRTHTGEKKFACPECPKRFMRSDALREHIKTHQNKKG
How it was run: as §1

ZFP SBS#1154 = molecular target: T20, ZFP SBS#1154 (synthetic, UniProt P08047)
T20 chain: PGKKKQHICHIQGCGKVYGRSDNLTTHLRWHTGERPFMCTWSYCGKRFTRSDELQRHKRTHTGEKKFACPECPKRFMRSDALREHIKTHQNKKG
How it was run: as §1

Sequence of ZFP SBS#1138 (synthetic) (chain, as listed by the source): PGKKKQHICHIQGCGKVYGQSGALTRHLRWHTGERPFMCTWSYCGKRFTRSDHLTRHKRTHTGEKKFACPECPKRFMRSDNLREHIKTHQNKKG

B1: CAGGGGGTA (dsDNA)
DNA 1: CAGGGGGTA
DNA 2: TACCCCCTG
Kd (ZFP SBS#1138): 27 pM

B2: TAGGGAGTC (dsDNA)
DNA 1: TAGGGAGTC
DNA 2: GACTCCCTA
Kd (ZFP SBS#1118): 1400 pM

B3: GAGGTCTGGA (dsDNA)
DNA 1: GAGGTCTGGA
DNA 2: TCCAGACCTC
Kd (ZFP SBS#472): 80000 pM

B4: TAGGAAGCA (dsDNA)
DNA 1: TAGGAAGCA
DNA 2: TGCTTCCTA
Kd (ZFP SBS#1123): 65 pM

B5: CTGGGGGCA (dsDNA)
DNA 1: CTGGGGGCA
DNA 2: TGCCCCCAG
Kd (ZFP SBS#1113): 60 pM

B6: TGGGAGGGT (dsDNA)
DNA 1: TGGGAGGGT
DNA 2: ACCCTCCCA
Kd (ZFP SBS#1119): 100 pM

B7: CAGGCTGCGC (dsDNA)
DNA 1: CAGGCTGCGC
DNA 2: GCGCAGCCTG
Kd (ZFP SBS#468): 42000 pM | Kd (ZFP SBS#466): 65000 pM | Kd (ZFP SBS#467): 800000 pM

B8: GCGGCGGGG (dsDNA)
DNA 1: GCGGCGGGG
DNA 2: CCCCGCCGC
Kd (ZFP SBS#1135): 25 pM

B9: GGTGCAGAC (dsDNA)
DNA 1: GGTGCAGAC
DNA 2: GTCTGCACC
Kd (ZFP SBS#1130): 100 pM

B10: GCAGAGGAG (dsDNA)
DNA 1: GCAGAGGAG
DNA 2: CTCCTCTGC
Kd (ZFP SBS#259): 250000 pM

B11: AAGGCTGGA (dsDNA)
DNA 1: AAGGCTGGA
DNA 2: TCCAGCCTT
Kd (ZFP SBS#1152): 1600 pM | Kd (ZFP SBS#1153): 8200 pM

B12: TTGGAGGAG (dsDNA)
DNA 1: TTGGAGGAG
DNA 2: CTCCTCCAA
Kd (ZFP SBS#1148): 6 pM | Kd (ZFP SBS#1149): 4 pM

B13: CAGGTTGAT (dsDNA)
DNA 1: CAGGTTGAT
DNA 2: ATCAACCTG
Kd (ZFP SBS#1114): 2750 pM | Kd (ZFP SBS#1115): 700 pM

B14: GGGGCTGGA (dsDNA)
DNA 1: GGGGCTGGA
DNA 2: TCCAGCCCC
Kd (ZFP SBS#1133): 500 pM | Kd (ZFP SBS#1132): 55 pM

B15: GAAGAGGTCT (dsDNA)
DNA 1: GAAGAGGTCT
DNA 2: AGACCTCTTC
Kd (ZFP SBS#469): 13500 pM

B16: CCGGGAGTG (dsDNA)
DNA 1: CCGGGAGTG
DNA 2: CACTCCCGG
Kd (ZFP SBS#1137): 85 pM | Kd (ZFP SBS#1136): 225 pM

B17: AGGGGAGCC (dsDNA)
DNA 1: AGGGGAGCC
DNA 2: GGCTCCCCT
Kd (ZFP SBS#1109): 347 pM | Kd (ZFP SBS#1110): 95 pM

B18: TGGGGGTGG (dsDNA)
DNA 1: TGGGGGTGG
DNA 2: CCACCCCCA
Kd (ZFP SBS#1134): 67 pM

B19: AGGGACGCG (dsDNA)
DNA 1: AGGGACGCG
DNA 2: CGCGTCCCT
Kd (ZFP SBS#1120): 2740 pM

B20: CTGGTAGGG (dsDNA)
DNA 1: CTGGTAGGG
DNA 2: CCCTACCAG
Kd (ZFP SBS#1111): 95 pM | Kd (ZFP SBS#1112): 125 pM

B21: GTGGATGGA (dsDNA)
DNA 1: GTGGATGGA
DNA 2: TCCATCCAC
Kd (ZFP SBS#1124): 101 pM

B22: CTGGTGGCC (dsDNA)
DNA 1: CTGGTGGCC
DNA 2: GGCCACCAG
Kd (ZFP SBS#1121): 2760 pM | Kd (ZFP SBS#1122): 101 pM

B23: CTGGCGTAG (dsDNA)
DNA 1: CTGGCGTAG
DNA 2: CTACGCCAG
Kd (ZFP SBS#1154): 1040 pM
